Reference: patent US20090082299A1 (US Dept. of Health and Human Services, published 2009)

Target: human IL-15 expressed from plasmid hIL15tPA6 (human IL-15opt1-tPA6; improved IL-15 with tPA6 SIGPRO peptide) (human, UniProt P40933 49-162)
Test: cell-based or functional assay

Sequence of human IL-15 expressed from plasmid hIL15tPA6 (human IL-15opt1-tPA6; improved IL-15 with tPA6 SIGPRO peptide) (P40933 other isoform, or with tags, fused parts or gaps limits assumed): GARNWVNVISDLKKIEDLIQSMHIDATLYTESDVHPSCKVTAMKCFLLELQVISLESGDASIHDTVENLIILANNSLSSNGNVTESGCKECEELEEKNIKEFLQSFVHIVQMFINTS

| total increase in IL-15 steady-state levels on co-expression in 293 cells, ELISA (FIG. 45A) [fold] | Binder |
| --- | --- |
| 7 | human soluble IL-15 Receptor alpha (extracellular part; plasmid AG98, hu sIL15RaOPT) (receptor) ITCPPPMSVEHADIWVKSYSLYSRERYICNSGFKRKAGTSSLTECVLNKATNVAHWTTPSLKCIRDPALVHQRPAPPSTVTTAGVTPQPESLSPSGKEPAASSPSSNNTAATTAAIVPGSQLMPSKSPSTGTTEISSHESSHGTPSQTTAKNWELTASASHQPPGVYPQGHSDTT |
| 4 | human IL-15 Receptor alpha, whole / full length (plasmid AG79, huIL15RaOPT) (receptor) ITCPPPMSVEHADIWVKSYSLYSRERYICNSGFKRKAGTSSLTECVLNKATNVAHWTTPSLKCIRDPALVHQRPAPPSTVTTAGVTPQPESLSPSGKEPAASSPSSNNTAATTAAIVPGSQLMPSKSPSTGTTEISSHESSHGTPSQTTAKNWELTASASHQPPGVYPQGHSDTTVAISTSTVLLCGLSAVSLLACYLKSRQTPPLASVEMEAMEALPVTWGTSSRDEDLENCSHHL |
